Reference: paper PMC12319226 (Frontiers in Bioinformatics, 2025)

T1: fHbp m002256 (Neisseria meningitidis, engineered fHbp …, chimera)
T1 chain: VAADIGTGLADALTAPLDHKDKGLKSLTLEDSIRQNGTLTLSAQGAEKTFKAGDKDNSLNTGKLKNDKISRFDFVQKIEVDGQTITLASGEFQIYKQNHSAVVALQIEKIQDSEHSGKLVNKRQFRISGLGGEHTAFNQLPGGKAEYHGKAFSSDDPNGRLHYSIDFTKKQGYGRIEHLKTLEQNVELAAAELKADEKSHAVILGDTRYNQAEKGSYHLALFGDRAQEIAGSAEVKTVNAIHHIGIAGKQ

T2: fHbp m001099 (Neisseria meningitidis fHbp v3.28-based …, point mutant)
T2 chain: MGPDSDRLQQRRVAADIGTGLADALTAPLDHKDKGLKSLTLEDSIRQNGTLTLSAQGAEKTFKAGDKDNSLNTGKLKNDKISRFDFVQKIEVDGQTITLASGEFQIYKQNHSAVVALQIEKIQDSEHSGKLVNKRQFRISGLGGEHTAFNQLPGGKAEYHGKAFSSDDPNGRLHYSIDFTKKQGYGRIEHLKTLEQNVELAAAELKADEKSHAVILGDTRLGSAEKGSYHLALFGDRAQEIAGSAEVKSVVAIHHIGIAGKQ

T3: fHbp m001531 (Neisseria meningitidis, fHbp …, point mutant)
T3 chain: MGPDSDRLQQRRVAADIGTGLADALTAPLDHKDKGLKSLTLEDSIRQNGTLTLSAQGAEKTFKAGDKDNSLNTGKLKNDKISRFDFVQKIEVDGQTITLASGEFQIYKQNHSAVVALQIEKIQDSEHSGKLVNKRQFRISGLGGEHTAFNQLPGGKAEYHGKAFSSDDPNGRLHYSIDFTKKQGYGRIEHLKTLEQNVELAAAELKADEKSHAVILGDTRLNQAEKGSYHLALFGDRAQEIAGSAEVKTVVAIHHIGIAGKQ

T4: fHbp m001660 (Neisseria meningitidis, fHbp …, point mutant)
T4 chain: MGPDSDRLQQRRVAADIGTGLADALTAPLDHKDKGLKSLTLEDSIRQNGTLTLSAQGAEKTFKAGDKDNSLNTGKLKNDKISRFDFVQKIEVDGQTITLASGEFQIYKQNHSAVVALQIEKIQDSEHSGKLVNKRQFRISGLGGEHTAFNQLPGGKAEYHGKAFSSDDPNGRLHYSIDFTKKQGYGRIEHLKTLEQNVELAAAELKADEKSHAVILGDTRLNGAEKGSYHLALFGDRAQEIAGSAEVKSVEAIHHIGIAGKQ

T5: fHbp m002414 (Neisseria meningitidis fHbp v3.28, …, chimera)
T5 chain: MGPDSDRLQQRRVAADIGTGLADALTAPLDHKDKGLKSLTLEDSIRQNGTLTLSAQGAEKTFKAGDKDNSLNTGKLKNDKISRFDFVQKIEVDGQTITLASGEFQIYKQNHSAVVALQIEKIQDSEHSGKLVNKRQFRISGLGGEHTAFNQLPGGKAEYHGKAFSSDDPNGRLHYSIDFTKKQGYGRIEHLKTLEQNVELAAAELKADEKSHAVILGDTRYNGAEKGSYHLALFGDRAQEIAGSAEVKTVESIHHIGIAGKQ

T6: fHbp m002281 (Neisseria meningitidis, engineered fHbp …, chimera)
T6 chain: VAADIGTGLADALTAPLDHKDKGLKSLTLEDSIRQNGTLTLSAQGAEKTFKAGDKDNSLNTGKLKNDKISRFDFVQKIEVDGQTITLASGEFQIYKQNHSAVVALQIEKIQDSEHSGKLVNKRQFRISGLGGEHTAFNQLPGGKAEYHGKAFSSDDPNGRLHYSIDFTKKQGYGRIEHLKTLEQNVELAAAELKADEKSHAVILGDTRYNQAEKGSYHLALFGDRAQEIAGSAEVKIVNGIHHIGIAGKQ

T7: fHbp m001672 (Neisseria meningitidis, fHbp …, point mutant)
T7 chain: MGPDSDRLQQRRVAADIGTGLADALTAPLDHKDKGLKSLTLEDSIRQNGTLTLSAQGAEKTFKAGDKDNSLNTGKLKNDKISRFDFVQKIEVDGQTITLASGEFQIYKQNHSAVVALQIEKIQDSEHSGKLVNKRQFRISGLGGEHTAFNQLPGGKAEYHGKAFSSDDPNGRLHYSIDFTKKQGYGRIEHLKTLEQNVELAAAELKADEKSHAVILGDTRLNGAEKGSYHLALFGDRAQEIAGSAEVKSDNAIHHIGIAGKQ

T8: fHbp m001119 (Neisseria meningitidis fHbp v3.28-based …, point mutant)
T8 chain: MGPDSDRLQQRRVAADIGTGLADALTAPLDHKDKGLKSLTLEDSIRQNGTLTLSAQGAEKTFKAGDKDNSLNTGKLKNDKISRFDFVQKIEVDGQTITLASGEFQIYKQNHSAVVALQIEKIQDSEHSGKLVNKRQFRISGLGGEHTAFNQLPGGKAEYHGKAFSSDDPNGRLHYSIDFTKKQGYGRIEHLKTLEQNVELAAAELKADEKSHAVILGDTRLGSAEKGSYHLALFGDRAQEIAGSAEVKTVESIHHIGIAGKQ

T9: fHbp m001177 (Neisseria meningitidis fHbp v3.28-based …, point mutant)
T9 chain: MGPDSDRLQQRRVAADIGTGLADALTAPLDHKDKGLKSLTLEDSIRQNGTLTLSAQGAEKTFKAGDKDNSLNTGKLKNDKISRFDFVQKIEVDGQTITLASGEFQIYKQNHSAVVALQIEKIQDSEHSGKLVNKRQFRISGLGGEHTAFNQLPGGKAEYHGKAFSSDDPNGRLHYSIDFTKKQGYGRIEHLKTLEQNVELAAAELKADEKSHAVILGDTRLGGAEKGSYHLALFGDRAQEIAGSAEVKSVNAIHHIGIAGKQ

B1: chimeric antibody h12C1 (antibody, V domains shown)
VH: QVQLQESGPELVKPGASVKISCKASGYSFSDYNMSWVKQSNGKSLEWIGIIDPKYGTINYNQKFKGKATLTVDQASSTAYMQLNSLTSEDSAVYYCVRDYYGSSYFDYWGQGTTLTVSS
VL: DIVLTQSPSSIYASLGERVTLTCKASQDIHNYLNWFQQKPGKSPKTLIYRANRLVDGVPSRFSGGGSGQDYSLTISSLEFEDIGIYYCLQYDEFPPTFGGGTRLEIK
notes: also called humanized 12C1; source: Expi293, purified (MabSelect SuRe, SEC); copies: 2 + 2
B2: mAb 1E6 (human) (antibody, V domains shown)
VH: EVQLVQSGAEVKKPGSSVKVSCKASGGTVIDYPITWVRQAPGQGLEWVGGFVPLFRTSNYGQKFQGRVTITADKSTSTASMELNSLTSEDTAIYYCARGDTAMGPFDYWGQGTLVTVSS
VL: SYVLTQPPSLSVAPGKTATLTCGGNNIAGKTVHWYQQRPGQAPVLVISYDSDRPSGIPERFSGSNSANTATLTISRVEAGDEADYYCQVWDRNSDHWVFGGGTKLTVL
notes: source: Expi293, purified (MabSelect SuRe, SEC); copies: 2 + 2

Legend:
Assay in all cases: BLI
Settings in all cases: both partners purified
[1] = molecular target: T1, fHbp m002256
[2] = molecular target: T2, fHbp m001099
[3] = molecular target: T3, fHbp m001531
[4] = molecular target: T4, fHbp m001660
[5] = molecular target: T5, fHbp m002414
[6] = molecular target: T6, fHbp m002281
[7] = molecular target: T7, fHbp m001672
[8] = molecular target: T8, fHbp m001119
[9] = molecular target: T9, fHbp m001177

| Binder | Kd [1] | koff [1] | kon [1] | Kd [2] | koff [2] | kon [2] | Kd [3] | koff [3] | kon [3] | Kd [4] | koff [4] | kon [4] | Kd [5] | koff [5] | kon [5] | Kd [6] | koff [6] | kon [6] | Kd [7] | koff [7] | also measured |
| --- | --- | --- | --- | --- | --- | --- | --- | --- | --- | --- | --- | --- | --- | --- | --- | --- | --- | --- | --- | --- | --- |
| B1 | 43.6 nM | 0.0102 s⁻¹ | 235000 ± 5060 M⁻¹ s⁻¹ | 44 nM | 0.0106 s⁻¹ | 241000 ± 3220 M⁻¹ s⁻¹ | 0.717 nM | 0.00022 s⁻¹ | 307400 ± 2940 M⁻¹ s⁻¹ | 139 nM | 0.0649 ± 0.00238 s⁻¹ | 466000 ± 71500 M⁻¹ s⁻¹ | 66.4 nM | 0.00858 s⁻¹ | 129000 ± 5630 M⁻¹ s⁻¹ | 34.9 nM | 0.0105 s⁻¹ | 300000 ± 6700 M⁻¹ s⁻¹ | 117 nM | 0.01791 ± 0.000106 s⁻¹ | kon [7]: 154000 ± 3920 M⁻¹ s⁻¹; Kd [8]: 0.957 nM; koff [8]: 0.000266 s⁻¹; kon [8]: 278300 ± 1110 M⁻¹ s⁻¹; Kd [9]: 92.7 nM; koff [9]: 0.02257 ± 0.000177 s⁻¹; kon [9]: 244000 ± 9380 M⁻¹ s⁻¹ |
| B2 | 0.23 nM | 0.000106 s⁻¹ | 460600 ± 4450 M⁻¹ s⁻¹ | 0.841 nM | 0.000237 s⁻¹ | 281500 ± 1290 M⁻¹ s⁻¹ | 0.546 nM | 0.0002 s⁻¹ | 367300 ± 1990 M⁻¹ s⁻¹ | 0.706 nM | 0.000209 s⁻¹ | 296000 ± 3450 M⁻¹ s⁻¹ | 1.09 nM | 0.000223 s⁻¹ | 205200 ± 950 M⁻¹ s⁻¹ | 0.217 nM | 0.0001 s⁻¹ | 462500 ± 3370 M⁻¹ s⁻¹ | 1 nM | 0.00032 s⁻¹ | kon [7]: 320000 ± 1490 M⁻¹ s⁻¹; Kd [8]: 0.886 nM; koff [8]: 0.000349 s⁻¹; kon [8]: 393800 ± 1250 M⁻¹ s⁻¹; Kd [9]: 0.609 nM; koff [9]: 0.000279 s⁻¹; kon [9]: 457500 ± 1660 M⁻¹ s⁻¹ |
